Test results: article PMC10643132

Assays:
[1] = target: biotinylated Ub–CycB^N (AviTag–Ub–Cyclin B (1–88)–Cys–6xHis) (UniProt P0CG48); assay: METRIS (mechanically transduced immunosorbent assay); biotinylated APC/C (with or without CDH1) on streptavidin ferromagnetic beads rolling on streptavidin wells coated with biotinylated CycB^N, Ub–CycB^N or Ub; rotating field 1 Hz; rolling parameter (RP); relative measure; no UbV added
[2] = target: biotinylated Ub (biotin maleimide on an N-terminal cysteine) (UniProt P0CG48); assay: as above
[3] = target: biotin–CycB^N* (AviTag–Cyclin B (1–88)–Cys–6xHis, biotinylated, Alexa488-labeled) (UniProt P14635); assay: as above
[4] = target: biotinylated Ub (biotin maleimide on an N-terminal cysteine) (UniProt P0CG48); assay: METRIS (mechanically transduced immunosorbent assay); as a7, surface of Ub, UbV^RING and UbV^CDH1 both added as competitors (concentrations not given)
[5] = target: biotinylated Ub–CycB^N (AviTag–Ub–Cyclin B (1–88)–Cys–6xHis) (UniProt P0CG48); assay: METRIS (mechanically transduced immunosorbent assay); as a7, surface of Ub–CycB^N, UbV^CDH1 added as competitor (concentration not stated)

Chain of biotin–CycB^N* (AviTag–Cyclin B (1–88)–Cys–6xHis, biotinylated, Alexa488-labeled) (P14635 other isoform, or with tags, fused parts or gaps): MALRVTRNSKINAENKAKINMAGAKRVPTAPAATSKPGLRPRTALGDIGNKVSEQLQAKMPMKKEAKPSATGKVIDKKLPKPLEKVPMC

- rolling parameter (RP) [1]: 0.21
- rolling parameter (RP) [2]: 0.17
- rolling parameter (RP) [3]: 0.15
- rolling parameter (RP) with UbV^RING and UbV^CDH1 added [4]: 0.13
- rolling parameter (RP) with UbV^CDH1 added [5]: 0.19
Substance: biotinylated APC/C^CDH1 (biotinylated APC/C with HaloTag, AviTag and Twin-Strep(II)-tag on APC4, incubated with CDH1 on the beads) (from UniProt Q9UJX6 1-822; P30260 1-824; Q9UJX5 1-808; Q9UJX3 1-565; Q9UJX2 1-595; Q9UM13 4-185; Q9NYG5 1-84; Q9UM11 1-496) (complex)
